Measured values as given in PMC11559003.

What was measured:
[1] = molecular target: T1, CRP (cAMP receptor protein) (Escherichia coli) (UniProt P0ACJ8); test: EMSA; conditions: EMSA: 10 nM probe, 1x Beyotime EMSA/Gel-Shift Binding Buffer, 25 C 30 min, 6% PAGE at 4 C in 0.5x TBE + 200 uM cAMP; BLI: 10 mM HEPES, 2 mM MgCl2, 0.1 mM EDTA …
T1 sequence: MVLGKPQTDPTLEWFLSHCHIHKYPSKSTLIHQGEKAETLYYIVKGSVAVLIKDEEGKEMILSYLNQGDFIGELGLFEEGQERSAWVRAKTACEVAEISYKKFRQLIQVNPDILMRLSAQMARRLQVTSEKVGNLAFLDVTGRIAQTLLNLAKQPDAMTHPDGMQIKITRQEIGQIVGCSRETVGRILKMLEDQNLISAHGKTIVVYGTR

[2] = test system: CRP (cAMP receptor protein) (Escherichia coli); test: BLI; conditions: EMSA: 10 nM probe, 1x Beyotime EMSA/Gel-Shift Binding Buffer, 25 C 30 min, 6% PAGE at 4 C in 0.5x TBE + 200 uM cAMP, BLI: 10 mM HEPES, 2 mM MgCl2, 0.1 mM EDTA …

Row | Substance | binding [1] | Kd ([2]; cAMP + (p)ppGpp) [µM] | Kd ([2]; cAMP, no (p)ppGpp) [µM]
1 | AGCCAGTGGCGATAAGCGGAGTCTGCGAGGACGCTTCCTGAAAATCGTCTTTATTGCAGTGAATGACAGGCAAATGCGGAAGCAGCTACGCAAAACGCAACAACTTTGCGCAAAAAGTGTGAGCAAGGGCTACGTCACATGGCCGCGCCGTGTATAATAAGCTCGTATGTAGGCTTTATTTCGCTAATCACATACGAAAGATACTCATGGCTCAAGGCACGCCTTATCGCCACTGGCT (double strand) [spoT promoter probe] | binds |  | 
2 | relA promoter probe |  | 110 | 13
